Experiment [1] deals with T1, B7-H3 (human).
T1 chain: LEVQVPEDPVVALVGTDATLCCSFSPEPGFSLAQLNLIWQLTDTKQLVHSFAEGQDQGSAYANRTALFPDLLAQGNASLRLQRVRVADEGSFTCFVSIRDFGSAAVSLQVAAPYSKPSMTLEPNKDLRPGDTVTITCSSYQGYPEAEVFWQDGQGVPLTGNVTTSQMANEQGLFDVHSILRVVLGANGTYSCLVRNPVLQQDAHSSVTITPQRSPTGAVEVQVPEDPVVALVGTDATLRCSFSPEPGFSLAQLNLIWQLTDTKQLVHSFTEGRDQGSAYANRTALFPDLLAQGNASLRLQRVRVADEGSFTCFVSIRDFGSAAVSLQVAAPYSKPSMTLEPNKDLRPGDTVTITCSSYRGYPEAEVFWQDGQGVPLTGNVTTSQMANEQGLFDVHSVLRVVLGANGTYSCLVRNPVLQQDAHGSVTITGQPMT
The experiment in a line: competition ELISA (phage).

Experiment [2] has as its target T1, B7-H3. The experiment in a line: competition ELISA (phage). A general note: In an ELISA, binding on a coated surface is turned into a signal by an enzyme label.
In experiment [3] the target is T1, B7-H3. As to the kind of experiment: Octet BLI; conc. 12.5 nM. For orientation: BLI is a label-free optical method that tracks binding on a fibre tip over time.
In experiment [4] the target is T1, B7-H3. As to the kind of experiment: Octet BLI; conc. 1.56 nM.
Experiment [5] has as its target T1, B7-H3. The experiment in a line: Octet BLI; conc. 6.25 nM.
The target of experiment [6] is T1, B7-H3. As to the kind of experiment: Octet BLI; conc. 100 nM.
The target in experiment [7] is T1, B7-H3. The experiment in a line: Octet BLI; conc. 25 nM.
In experiment [8] the target is T1, B7-H3. As to the kind of experiment: Octet BLI; conc. 50 nM.
Experiment [9] concerns the target T1, B7-H3. As to the kind of experiment: Octet BLI; conc. 3.13 nM.

Where two headings read alike, the source gives them in different places.

The IC50 is the concentration that gives 50% inhibition. Lower therefore signals greater potency in that assay. For orientation: Kd means the constant that tells how readily two partners part at equilibrium.

B1: 2-8 (antibody, V domains shown)
VH: QVQLQQSGAEVKKPGASVKVSCKASGYTFTNYDINWVRQAPGQGLEWIGWIFPGDGSTQYNEKFKGRATLTTDTSTSTAYMELSSLRSEDTAVYFCARQTTGTWFAYWGQGTLVTVSS
VL: DIVLTQSPATLSLSPGERATLSCRASQSISEYLHWYQQKPGQAPRLLIKHASQSISGIPARFSGSGSGSDFTLTISSLEPEDFAVYYCQNGHSFPLTFGGGTKVEIKR
Turning to B1, the IC50 in the experiment with B7-H3 [1] came to 11.4 nM.

B2: 1-2 (antibody, V domains shown)
VH: QVQLQQSGAEVKKPGASVKVSCKASGYTFTNYDINWVRQAPGQGLEWIGWIFPGDGSTQYNETFKGRATLTTDTSTSTAYMELSSLRSEDTAVYFCARQTTGTWFAYWGQGTLVTVSS
VL: DIVLTQSPATLSLSPGERATLSCRASQSISKYLHWYQQKPGQAPRLLIKYANQSIRGIPARFSGSGSGSDFTLTISSLEPEDFAVYYCQNGHSFPLTFGGGTKVEIKR
B2 registered an IC50 with B7-H3 [2] of 10 nM.

B3: 1-7 (antibody, V domains shown)
VH: QVQLQQSGAEVKKPGASVKVSCKASGYTYTNYDINWVRQAPGQGLEWIGWIFPGDGSTQYNEKFKGRATLTTDTSTSTAYMELSSLRSEDTAVYFCARQTTGTWFAYWGQGTLVTVSS
VL: DIVLTQSPATLSLSPGERATLSCRASQSISPYLHWYQQKPGQAPRLLIKHASQSISGIPARFSGSGSGSDFTLTISSLEPEDFAVYYCQNGHSFPLTFGGGTKVEIKR
Molecule B3 showed an IC50 in the experiment with B7-H3 [2] of 5.6 nM. Against the preceding molecule, the IC50 is about 1.8-fold lower.

B4: 2-5 (antibody, V domains shown)
VH: QVQLQQSGAEVKKPGASVKVSCKASGYTFTNYDINWVRQAPGQGLEWIGWIFPGDGSTQYNEKFKGRATLTTDTSTSTAYMELSSLRSEDTAVYFCARQTTSTWFAYWGQGTLVTVSS
VL: DIVLTQSPATLSLSPGERATLSCRASQIISDYLHWYQQKPGQAPRLLIKYASQLISGIPARFSGSGSGSDFTLTISSLEPEDFAVYYCQNGHSFPLTFGGGTKVEIKR
Molecule B4 came in with an IC50 with B7-H3 [1] of 85 nM.

B5: 1-1 (antibody, V domains shown)
VH: QVQLQQSGAEVKKPGASVKVSCKASGYTFTNYDINWVRQAPGQGLEWIGWIFPGDGSTQYNGKFKGRATLTTDTSTSTAYMELSSLRSEDTAVYFCARQTTGTWFAYWGQGTLVTVSS
VL: DIVLTQSPATLSLSPGERATLSCRASQSISPYLHWYQQKPGQAPRLLIKYASQSWSGIPARFSGSGSGSDFTLTISSLEPEDFAVYYCQNGHSFPLTFGGGTKVEIKR
In turn, B5 showed a 50% inhibitory concentration (IC50) with B7-H3 [2] of 8.8 nM.

B6: 1-5 (antibody, V domains shown)
VH: QVQLQQSGAEVKKPGASVKVSCKASGYTFTNYDINWVRQAPGQGLEWIGWIFPGDGSTQYNEKFKGRATLTTDTSTSTAYMELSSLRSEDTAVYFCARQTTGTWFAYWGQGTLVTVSS
VL: DIVLTQSPATLSLSPGERATLSCRASQSISHYLHWYQQKPGQAPRLLIKYASQSLSGIPARFSGSGSGSDFTLTISSLEPEDFAVYYCQNGHSFPLTFGGGTKVEIKR
On to B6, for which the IC50 with B7-H3 [2] was determined as 5.1 nM. Compared with the last molecule, the IC50 is about 1.7-fold lower.

B7: 8 (2-8Ig) (antibody, V domains shown)
VH: QVQLQQSGAEVKKPGASVKVSCKASGYTFTNYDINWVRQAPGQGLEWIGWIFPGDGSTQYNEKFKGRATLTTDTSTSTAYMELSSLRSEDTAVYFCARQTTGTWFAYWGQGTLVTVSS
VL: DIVLTQSPATLSLSPGERATLSCRASQSISEYLHWYQQKPGQAPRLLIKHASQSISGIPARFSGSGSGSDFTLTISSLEPEDFAVYYCQNGHSFPLTFGGGTKVEIKR
With B7, the equilibrium dissociation constant (Kd) in the experiment with B7-H3 [3] turned out to be 0.0234 nM; with B7-H3 [4] it was 0.0135 nM; in the experiment with B7-H3 [5] it was 0.0179 nM; in the experiment with B7-H3 [6], 0.0884 nM; with B7-H3 [7], 0.0309 nM; in the experiment with B7-H3 [8], 0.0401 nM. Further, the Kd in the experiment with B7-H3 [9] stood at 0.0218 nM.

B8: 1-4 (antibody, V domains shown)
VH: QVQLQQSGAEVKKPGASVKVSCKASGYTFTNYDINWVRQAPGQGLEWIGWIFPGDGSTQYNPKFKGRATLTTDTSTSTAYMELSSLRSEDTAVYFCARQTTGTWFAYWGQGTLVTVSS
VL: DIVLTQSPATLSLSPGERATLSCRASQSISTYLHWYQQKPGQAPRLLIKEASQSISGIPARFSGSGSGSDFTLTISSLEPEDFAVYYCQNGHSFPLTFGGGTKVEIKR
In the experiment with B7-H3 [2], B8 displayed an IC50 of 5.6 nM.

(Values after patent US20170362322A1 (published 2017).)
